Assay results reported in PMC7732191 (Science Advances, 2020).

Biological target: the molecule itself
Experiment: cryo-EM structure

B1: full-length human KCC2a (potassium-chloride cotransporter 2, SLC12A5) (natural protein, UniProt Q9H2X9-1 1-1139, looked up)
chain: MSRRFTVTSLPPAGPARSPDPESRRHSVADPRHLPGEDVKGDGNPKESSPFINSTDTEKGKEYDGKNMALFEEEMDTSPMVSSLLSGLANYTNLPQGSREHEEAENNEGGKKKPVQAPRMGTFMGVYLPCLQNIFGVILFLRLTWVVGIAGIMESFCMVFICCSCTMLTAISMSAIATNGVVPAGGSYYMISRSLGPEFGGAVGLCFYLGTTFAGAMYILGTIEILLAYLFPAMAIFKAEDASGEAAAMLNNMRVYGTCVLTCMATVVFVGVKYVNKFALVFLGCVILSILAIYAGVIKSAFDPPNFPICLLGNRTLSRHGFDVCAKLAWEGNETVTTRLWGLFCSSRFLNATCDEYFTRNNVTEIQGIPGAASGLIKENLWSSYLTKGVIVERSGMTSVGLADGTPIDMDHPYVFSDMTSYFTLLVGIYFPSVTGIMAGSNRSGDLRDAQKSIPTGTILAIATTSAVYISSVVLFGACIEGVVLRDKFGEAVNGNLVVGTLAWPSPWVIVIGSFFSTCGAGLQSLTGAPRLLQAISRDGIVPFLQVFGHGKANGEPTWALLLTACICEIGILIASLDEVAPILSMFFLMCYMFVNLACAVQTLLRTPNWRPRFRYYHWTLSFLGMSLCLALMFICSWYYALVAMLIAGLIYKYIEYRGAEKEWGDGIRGLSLSAARYALLRLEEGPPHTKNWRPQLLVLVRVDQDQNVVHPQLLSLTSQLKAGKGLTIVGSVLEGTFLENHPQAQRAEESIRRLMEAEKVKGFCQVVISSNLRDGVSHLIQSGGLGGLQHNTVLVGWPRNWRQKEDHQTWRNFIELVRETTAGHLALLVTKNVSMFPGNPERFSEGSIDVWWIVHDGGMLMLLPFLLRHHKVWRKCKMRIFTVAQMDDNSIQMKKDLTTFLYHLRITAEVEVVEMHESDISAYTYEKTLVMEQRSQILKQMHLTKNEREREIQSITDESRGSIRRKNPANTRLRLNVPEETAGDSEEKPEEEVQLIHDQSAPSCPSSSPSPGEEPEGEGETDPEKVHLTWTKDKSVAEKNKGPSPVSSEGIKDFFSMKPEWENLNQSNVRRMHTAVRLNEVIVKKSRDAKLVLLNMPGPPRNRNGDENYMEFLEVLTEHLDRVMLVRGGGREVITIYS
modifications: N-acetylglucosamine (glycosylation) at multiple Asn residues of the ECD
- stoichiometry N: 2
